B1: Occ: full-length human occludin with C-terminal myc-tag, stably expressed in Raf1-transformed Pa4 cells (protein, UniProt Q16625 1-522, looked up)
chain: MSSRPLESPPPYRPDEFKPNHYAPSNDIYGGEMHVRPMLSQPAYSFYPEDEILHFYKWTSPPGVIRILSMLIIVMCIAIFACVASTLAWDRGYGTSLLGGSVGYPYGGSGFGSYGSGYGYGYGYGYGYGGYTDPRAAKGFMLAMAAFCFIAALVIFVTSVIRSEMSRTRRYYLSVIIVSAILGIMVFIATIVYIMGVNPTAQSSGSLYGSQIYALCNQFYTPAATGLYVDQYLYHYCVVDPQEAIAIVLGFMIIVAFALIIFFAVKTRRKMDRYDKSNILWDKEHIYDEQPPNVEEWVKNVSAGTQDVPSPPSDYVERVDSPMAYSSNGKVNDKRFYPESSYKSTPVPEVVQELPLTSPVDDFRQPRYSSGGNFETPSKRAPAKGRAGRSKRTEQDHYETDYTTGGESCDELEEDWIREYPPITSDQQRQLYKRNFDTGLQEYKSLQSELDEINKELSRLDKELDDYREESEEYMAAADEYNRLKQVKGSADYKSKKNHCKQLKSKLSHIKKMVGDYDRQKT
modifications: full-length C-terminal myc-tag
notes: full-length human occludin with C-terminal myc-tag, stably expressed in Raf1-transformed Pa4 cells
B2: claudin-1: tight junction protein claudin-1 force-expressed in Pa4-Raf1 cells (protein, UniProt O95832 1-211, looked up)
Claudin-1: MANAGLQLLGFILAFLGWIGAIVSTALPQWRIYSYAGDNIVTAQAMYEGLWMSCVSQSTGQIQCKVFDSLLNLSSTLQATRALMVVGILLGVIAIFVATVGMKCMKCLEDDEVQKMRMAVIGGAIFLLAGLAILVATAWYGNRIVQEFYDPMTPVNARYEFGQALFTGWAAASLCLLGGALLCCSCPRKTTSYPTPRPYPKPAPSSGKDYV

What was measured:
Pa4-Raf1 cells [1] = assay: Tumorigenicity in nude mice; assay type: in vivo; details: Pa4-Raf1 cells expressing the construct, injected subcutaneously, 6 weeks post injection
Method: The nude mice were used to assay tumorigenicity in vivo. Pa4 cells, Pa4-Raf1 cells and Pa4-Raf1 cells expressing fall-length occludin or various occludin mutants were grown to logarithmic growth phase, harvested, washed, and resuspended in PBS for injection. Each of the cell lines (1×10^6 cells in 200 μl PBS) was injected subcutaneously into the flanks of four male nude mice. Tumor formation was monitored daily. All nude mice were sacrificed at six weeks, with tumors being isolated and analyzed.

Pa4-Raf1 cells [2] = assay: Transepithelial electrical resistance (TER) of monolayers on filter supports; assay type: cell-based, rat; details: Pa4-Raf1 cells expressing the construct, after 5 days of culture on semi-permeable filter supports
Method: (§1) For transepithelial electrical resistance (TER) measurements, cells were plated on polycarbonate filters with a pore size of 0.4 μm. A Millicell-ERS volt-ohm meter (Millipore) was used to determine the TER value. All TER values were normalized for the area of the filter and were obtained by subtracting the contribution of the filter and bathing solution. Paracellular permeability to fluoresceinated dextran (FD-3; MW 3000) was assessed according to previously published methods (Sanders et al., 1995). Briefly, cells were grown on polycarbonate filters with a pore size of 0.4 μm. TER was measured and then cells were washed in Hanks balanced salt solution/10 mM HEPES (HBSS^+) and equilibrated at 37° C. for 10 min on an orbital shaker. Cells were loaded apically with 1 mg/ml FD-3 (Molecular Probes) at time=0. Basolateral samples were taken at t=0, 30, 60, 90 and 120 minutes, and fluorescence intensity was analyzed on a CytoFluor 2350 Fluorescence Measurement System (Millipore, Cambridge, Mass.). FD-3 concentrations transported were extrapolated from a standard curve (generated by diluting known concentrations of fluorescent tracer) and expressed as ng FD-3 transported/cm^2/hour. Numerical values from individual experiments were pooled and expressed as mean ±standard error of the mean. Data shown are representative of at least three experiments.

Pa4-Raf1 cells [3] = assay: Oligonucleotide microarray comparison of mRNA abundance; assay type: cell-based, rat; details: for correction of Raf1-driven gene expression changes (mRNA abundance): forced expression in Pa4-Raf1 cells
From the text: Based upon internal quality control data, differential expression values greater than 1.5 obtained with Agilent Oligonucleotide microarrays are likely to be significant. Using this benchmark, we compared microarray data for entire rat genome obtained from Pa-4 cells before and after stable transfection with constitutively active Raf1 (Pa4-Raf1). […] Genes affected by active Raf1 in Pa4 cells included transcription factors, response elements, regulatory molecules, growth factor receptors, cell-cell contact proteins, and cytoskeletal elements that were consistent with those identified in other studies examining epithelial cell gene modulation associated with Ras/Raf/MAP kinase pathway activation. The strongest mRNA abundance profile shifts occurred in genes associated with cell polarity, proliferation and sensitivity to apoptotic stimuli. Numerous genes identified by the present studies have been previously reported as being targets of cell regulation in other cancer cell microarray studies.

Pa4-Raf1 cells [4] = assay: Paracellular permeability to FD-3 (3 kDa FITC-dextran); assay type: cell-based, rat; details: Pa4-Raf1 cells expressing the construct
Method: as §1

Pa4-Raf1 cells [5] = assay: Cloning efficiency (anchorage-independent growth) in soft agarose; assay type: cell-based, rat; details: Pa4-Raf1 cells expressing the construct, 4 weeks, colonies >0.4 mm counted
Method: Pa4 cells, Pa4-Raf1 cells and Pa4-Raf1 cells expressing full-length occludin or various occludin mutants were seeded a density of 1×10^4 cells per 35-mm culture dish in 1 ml of 0.35% (wt/vol) low melting point agarose solution diluted with complete medium. Dishes were coated with 1 ml of 0.7% (wt/vol) low melting point agarose before cell plating, and 1 ml of overlay medium was added after cell plating. The dishes were incubated at 35° C. in 5% CC>2 and 95% air for 4 weeks. The overlay medium was changed every 3 days. After 4 weeks, the cells were stained with 3-[4,5-dimethylthiazol-2-yl]-2,5-diphenyltetrazolium bromide (MTT; 0.05 mg/ml). The stained dishes were photographed, and colonies >0.4 mm in diameter were counted and analyzed.

Pa4-Raf1 cells [6] = assay: Phase contrast and immunofluorescence microscopy of cell morphology and junctional proteins; assay type: cell-based, rat; details: Pa4-Raf1 cells expressing the construct, grown on plastic
Method: Cells grown on glass coverslips or on polycarbonate filters (NK, Costar, Cambridge, Mass., US) with a pore size of 0.4 μm were rinsed with HBSS containing calcium and magnesium (HBSS^+). Cells were fixed and permeabilized in absolute methanol for 20 min at −20° C., followed by blocking in HBSS^+ containing 5% normal goat serum (blocking buffer) for 1 h at room temperature and incubation for 60 min with primary antibodies to human occludin, claudin-1, and ZO-1, (Zymed Laboratories, San Francisco, Calif.), E-cadherin (BD Biosciences) in blocking buffer. Cells were then washed, incubated for 60 min with Alexa dye-conjugated secondary antibodies (Molecular Probes, Eugene, Oreg.), followed by rinsing and mounting on slides with PROLONG ANTIFADE medium (Molecular Probes). For double labeling of junctional proteins, cells were fixed and permeabilized in absolute methanol and blocked in blocking buffer. Cells were sequentially stained with two primary antibodies. Donkey anti-goat and anti-rabbit antibodies conjugated to fluorescent red or green Alexa dyes (Molecular Probes) were used for detection of the respective primary antibodies. Stained cells were scanned using a Zeiss LSM510 laser scanning confocal microscope (Zeiss Microimaging Inc., Thornwood, N.Y.) coupled to a Zeiss 100M axiovert and 40× or 63× Pan-Apochromat oil lenses. […]

| Molecule | tumor formation (Pa4-Raf1 cells [1]) | transepithelial electrical resistance (TER) (Pa4-Raf1 cells [2]) [O-cm^2] | growth factor binding protein mRNA up-regulation (Pa4-Raf1 cells [3]; Pa4 Raf1 cells, forced occludin expression) [fold] | aquaporin-1 mRNA levels (Pa4-Raf1 cells [3]; Raf1-induced nearly 4-fold increase) | correction of Raf1-driven gene expression changes (mRNA abundance) (Pa4-Raf1 cells [3]) | correction of Raf1 gene modifications of Table 1 (Pa4-Raf1 cells [3]; genes of Table 1) | REX-3 mRNA abundance (Pa4-Raf1 cells [3]; up-regulated 37-fold by Raf1) | FD-3 flux rate (Pa4-Raf1 cells [4]) | average number of colonies on soft agarose (Pa4-Raf1 cells [5]) [colonies] | rescue of epithelial cell morphology (Pa4-Raf1 cells [6]) | rescue of epithelial cell morphology (Pa4-Raf1 cells [6]; listed as full-length occludin) |
| --- | --- | --- | --- | --- | --- | --- | --- | --- | --- | --- | --- |
| B1 | failed to produce tumors | > 900 | 35 | corrected | remarkable reversal of essentially all of the genomic changes | corrected | down-regulated by occludin to an equivalent extent | −1,500 ng/cm^2/hr | 5 | recovered epithelial morphology | tightly clustered colonies |
| B2 |  |  |  |  | fails to affect correction of gene modifications |  |  |  |  |  |  |

— patent US20080125364A1, “Methods and Compositions for Treating Epithelial Cancers” (priority 2004, published 2008)
